Assay [1] addresses T1, prothrombinase (Homo sapiens, UniProt P00742).
T1 construct: purchased Haematologic Technologies, Inc
In words: fluorescent prothrombinase assay (DAPA; conversion of prothrombin to α-thrombin). Type of assay: biochemical. The conditions noted are these: for pIC50: fluorescent assay, DAPA fluorescence, read-out: IC50 for inhibition of prothrombinase activity. An excerpt: The assay used to obtain the data shown in FIG. 4 is a fluorescent assay that is described in Example 3 of this document. Briefly, the fluorescent assay, in contrast to the visual assay, measures only one reaction of the many necessary for formation of a blood clot. The fluorescent assay measures conversion of prothrombin to a-thrombin as catalyzed by prothrombinase. A fluorescent assay reaction contains prothrombin, factor Xa, factor Va and a preparation of phospholipid vesicles, which facilitate assembly of the aforementioned components into a functioning prothrombinase enzyme.
Each fluorescent assay also contains a fluorescent compound called dansylarginine-N-(3-ethyl-1,5-pentanediyl)amide (or DAPA for short). DAPA specifically binds to α-thrombin, the product of the prothrombinase reaction. Binding of DAPA by α-thrombin increases the fluorescence intensity of DAPA. In the case where no peptide inhibitor of prothrombinase is present in the reaction, high levels of α-thrombin are produced in the reaction, and DAPA fluorescence is high. When a peptide inhibitor of prothrombinase is present, little α-thrombin is produced in the reaction, and DAPA fluorescence is low. Therefore, by measuring DAPA fluorescence, the inhibitory ability of each peptide is determined.
The identity of reactions containing each peptide, as well as the reactions containing no peptide (labeled “Xa/Va”) or no peptide and no factor Va (labeled “Xa”) is shown on the x-axis of FIG. 4.
Activities of prothrombinase, as measured by DAPA fluorescence, are shown on the y-axis of FIG. 4. […] DAPA fluorescence in the absence of both peptide and factor Va (the bar labeled “APXa” in FIG. 4) is 9% of the APXa/Va activity, and is background fluorescence.
The fluorescence assay specifically measured the conversion of prothrombin to α-thrombin, one essential reaction of the many required for blood clotting (see FIG. 1). […]
The fluorescent properties of DAPA were contributed by the dansyl moiety. When bound to α-thrombin, the fluorescence intensity and lifetime of the dansyl moiety were increased three-fold. Therefore, in this assay, when prothrombinase activity was uninhibited, α-thrombin was produced (see FIG. 1) and DAPA fluorescence was high. When prothrombinase activity was inhibited, as in the presence of peptide prothrombinase inhibitors, α-thrombin was not produced and DAPA fluorescence was low.
In a typical assay, the final concentrations of reagents were as follows: prothrombin, 1.4 μM; factor Xa, 10 nM; factor Va, 1 nM; phospholipid vesicles, 20 μM; DAPA, 3 μM; peptide, 100 μM. […] After centrifugation to isolate the vesicles, the concentration of the vesicles was determined by phosphorus assay (Gomori, 1942, J Lab Clin Med, 27:955-60). […]

Assay [2] has as its target T1, prothrombinase. In words: visual blood clotting assay (factor V-depleted plasma, thromboplastin, factor Va). Type of assay: biochemical. The conditions noted are these: increasing peptide concentrations, as high as 250 μM. From the text: FIG. 3 is a graph showing inhibition of prothrombinase activity by the 42 amino acid peptide NR42, encompassing amino acids 307-348 of the human factor Va heavy chain (SEQ ID NO. 2). The assay used to obtain the data shown in FIG. 3 is a visual blood clotting assay that is described in detail in Example 2 of this document.
Briefly, in the visual blood clotting assay, reactions are set up that contain all components of the blood necessary to form a blood clot and the time required for formation of a visual blood clot is recorded. To test inhibitory activity of the NR42 peptide, different concentrations of NR42 are added to a series of such reactions. […] The time required for an observable blood clot to form in the absence of NR42 peptide (0 μM peptide on the x-axis) is designated as 100% prothrombinase activity, as shown on the y-axis of FIG. 3. Inhibition of blood clotting by […] results in longer clotting times. Longer clotting times are shown on the y-axis of the graph as decreased prothrombinase activity. […]
Factor Va was purchased or, alternatively was produced by treatment of 50 nM of purified factor V (Haematologic Technologies, Inc.) with 1 nM α-thrombin for 10 min followed by the addition of 2 nM hirudin. […] This time was arbitrarily determined to be 100% activity. […]

Assay [3] deals with prothrombinase (factor Xa plus factor Va) (human) (UniProt P00742).
Assay [4] deals with factor Xa (Homo sapiens (Human)) (UniProt P00742).
Where [5] appears, read: series of peptide concentrations.

Experimental findings from US6703364B2, “Thrombin generation inhibitors” (Cleveland State University, priority 2001, dated 2004) are described below.

pIC50: −log10 of the molar value. Entries after “also recorded” stand apart in the source; their conditions may differ. Residues, ends and D or L forms follow the SMILES beside them. No end group written: not given here.

The term pIC50 denotes −log10 of the IC50, conventionally taken in molar units.

T1 sequence (P00742 41-179 limits assumed): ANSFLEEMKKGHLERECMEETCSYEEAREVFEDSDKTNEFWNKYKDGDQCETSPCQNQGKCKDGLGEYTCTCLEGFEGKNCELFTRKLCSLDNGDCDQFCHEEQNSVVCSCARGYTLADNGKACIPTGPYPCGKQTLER
T1 sequence (P00742 235-488 limits assumed): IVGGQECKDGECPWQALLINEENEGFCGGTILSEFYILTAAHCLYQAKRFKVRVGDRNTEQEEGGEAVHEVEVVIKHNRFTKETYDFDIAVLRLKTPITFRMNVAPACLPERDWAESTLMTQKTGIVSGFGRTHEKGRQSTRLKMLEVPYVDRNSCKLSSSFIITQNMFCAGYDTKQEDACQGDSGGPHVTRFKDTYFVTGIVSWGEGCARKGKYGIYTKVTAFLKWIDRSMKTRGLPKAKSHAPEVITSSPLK

Regarding `CC[C@H](C)[C@H](NC(=O)[C@H](Cc1ccccc1)NC(=O)[C@H](Cc1ccc(O)cc1)NC(=O)[C@H](CCC(=O)O)NC(=O)[C@@H](N)Cc1c[nH]c2ccccc12)C(=O)N[C@@H](C)C(=O)N[C@@H](C)C(=O)N[C@@H](CCC(=O)O)C(=O)N[C@@H](CCC(=O)O)C(=O)N[C@H](C(=O)O)C(C)C` [AP4, Trp Glu Tyr Phe Ile Ala Ala Glu Glu Val] (H-WEYFIAAEEV-OH), the pIC50 in assay [1] (setting [5]) is about 5.30.
Still for that read-out and setting: with `CC[C@H](C)[C@H](N)C(=O)N[C@@H](Cc1c[nH]c2ccccc12)C(=O)N[C@@H](CC(=O)O)C(=O)N[C@@H](Cc1ccc(O)cc1)C(=O)N[C@@H](C)C(=O)N1CCC[C@H]1C(=O)N[C@H](C(=O)N[C@H](C(=O)N1CCC[C@H]1C(=O)N[C@@H](C)C(=O)O)[C@@H](C)CC)C(C)C` [AP6, Ile Trp Asp Tyr Ala Pro Val Ile Pro Ala] (H-IWDYAPVIPA-OH) the figure was about 4.52.
Turning to “DR13: control peptide encompassing amino acids 697 to 709 of the factor Va heavy chain (DADSDYQDELALI)”, the “effect on blood clotting time and prothrombinase activity (in words)” value in assay [2] was “do not significantly affect blood clotting time and prothrombinase activity”; in assay [2] (listed as D13R) it was “did not inhibit prothrombinase activity”.
With EYFAE (peptide), the IC50, inhibition of prothrombinase, fluorescent assay (DAPA) in assay [3] was 10 to 15 µM.
As for “NMDKKYRSQH [AP8, 10 amino acid peptide adjacent to and overlapping AP9]”, the “prothrombinase activity relative to the no peptide reaction” value in assay [1] (100 μM peptide, no peptide reaction (Xa/Va) = 100%, remaining activity) is listed as “approximately 80%”.
As for “P15H: 15 amino acid peptide encompassing amino acids 337-351 of human factor Va; used as negative control (PIIPANMDKKYRSLH) [Peptide P15H]”, in assay [1] (series of peptide concentrations, up to approximately 500 μM), the “inhibition of prothrombinase activity (in words)” value was “did not inhibit prothrombinase; also recorded: does not inhibit prothrombinase activity”.
factor Va (from UniProt P12259): the prothrombinase activity by DAPA fluorescence, factor Xa with and without factor Va (% of the Xa/Va activity) in assay [4] was determined as 9.
